Measurements taken from article PMC6140506 (Proceedings of the National Academy of Sciences of the …, 2018).
Read-outs that look alike come from different tables or passages of the source.

B1: 102.1F10 IgE (antibody, V domains shown)
VH: QVQLVQSGAEVRNPGASVKVSCKASGYTFTSYAIHWVRQAPGHRLEWVGRINTDNGNTKYSQKFHGRVALSRDTSASTTYMDLSSLNSEDTAVYYCARAFYYSSGVMFDSWGQGALVTVSS
VL: QSALTQPPSVSGAPGQRVSISCTGGSSNFGAGYDVHWYQQLPATAPKLLIYGNNNRPSGVPDRFSGSKSGTSASLAITGLQAEDEGDYFCQSFDTSLSGWIFGGGTKLTVL
B2: 102.1F10 Fab (Fab, V domains shown)
VH: B1 VH
VL: B1 VL

Assays:
Assay in all cases: SPR
Bet v 4 [1] = target: Bet v 4 (UniProt Q39419)
Phl p 7 wild-type = Phl p 7 wild-type (Timothy grass, UniProt O82040)
Ole e 3 [2] = target: T1, Ole e 3 (Olea europaea (common olive), UniProt O81092)
Bet v 4 [3] = target: Bet v 4 (UniProt Q39419); remark: listed apart in the source
Ole e 3 [4] = target: T1, Ole e 3; remark: listed apart in the source

Sequence of Bet v 4 (Q39419 whole entry): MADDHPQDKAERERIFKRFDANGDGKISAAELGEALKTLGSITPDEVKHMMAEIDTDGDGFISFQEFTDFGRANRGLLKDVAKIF
Sequence of Phl p 7 wild-type (O82040 whole entry): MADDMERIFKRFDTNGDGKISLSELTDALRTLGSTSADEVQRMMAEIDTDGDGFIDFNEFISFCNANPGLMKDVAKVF

Binder | fold weaker binding than Phl p 7 (Bet v 4 [1]) [fold] | Kd (Phl p 7 wild-type) [nM] | binding result (Ole e 3 [2]) | fold weaker binding than Phl p 7 (Bet v 4 [3]) [fold] | binding result (Ole e 3 [4])
B1 | 1000 | 0.17 | binds | – | –
B2 | – | – | – | 1000 | binds
